Laboratory results taken from paper PMC10836093, “Ensemble-based design of tau to inhibit aggregation while preserving biological activity” (Research Square, 2024).

Molecular target: the molecule itself
Assay: ThT fluorescence aggregation assay; peptide alone, 50-800 μM in 1X PBS pH 7.4, 1 mM DTT, 25 μM ThT, 37 °C, no inducer; self-assembly into amyloid fibrils, t1/2max from fitted curves

| Protein | t1/2max of ThT aggregation at 800 μM [h] | t1/2max of ThT aggregation at 100 μM [h] |
| --- | --- | --- |
| Ac-KDNIKHVPGGGSVQIVYK-NH2 (also called 4R-derived peptide; source: synthetic peptide (Genscript, >95% purity), disaggregated in TFA) [WT R2R3_(294-311) peptide] | 46 ± 13 |  |
| Ac-KDNIKHVSGGGSVQIVYK-NH2 (also called mutant 4R fragment; source: synthetic peptide (Genscript, >95% purity), disaggregated in TFA) [P301S R2R3_(294-311) peptide] | 7.5 ± 1 | 52 ± 14 |
